# Data published in the supplement of paper PMC9170038.
# System: MS2 coat protein
# Experiment: apparent KD of MS2 coat protein; higher = weaker reporter binding
# Conditions: Eterna round: R107
# Procedure: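 RNA-MaP round R107: designed RNA switches with theophylline, tryptophan, arginine or FMN aptamers are transcribed on-chip within common flanks. They are titrated with SNAP-549-labelled MS2 coat protein in RNA-MaP buffer (100 mM Tris pH 7.5, 80 mM KCl, 4 mM MgCl2), without ligand or with the indicated ligand. Median apparent KD per design.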
# [1] = input ligand: theophylline 20 uM
# [2] = input ligand: theophylline 2 mM
# [3] = input ligand: tryptophan 2.4 mM
Sequence,apparent KD of MS2 coat protein (input ligand: arginine 13.2 mM) [nM],apparent KD of MS2 coat protein (input ligand: none) [nM],apparent KD of MS2 coat protein [1] [nM],apparent KD of MS2 coat protein [2] [nM],apparent KD of MS2 coat protein [3] [nM]
AUCCACAGCCGAAGGAGCGCUAGAAGAUGACAUGAGGAUCACCCAUGUGUGUGAUGUGGCUAGCAGGUAGGUCGCGGAGUGGAUU [Exclusion - Arginine B (Freestyle 12)],31.6,24.3,35.5,26.2,24.7
AGAAUACAUGUUUUAAUACGGUUUACUGAUACCAGUGUAUCUAUUCACCCUUGGCAGCAGAGACAUGAGGAUCACCCAUGUAUUA [JR_Nu_ExcTheophyA_Sub022],25,–,41.7,–,46.1
CGCUACGUAACUGAUACCAGUGUACUGACAUGAGGAUCACCCAUGUUGGGUUUUGUUGUACACCCUUGGCAGCAGAAUCGUAGCG [AstrosExyTheB#13],58.7,–,79.2,–,61.3
AGUCUUGAACGAAGGAGCGACGUACAUGAGGAUCACCCAUGUGUAGGAGCGAAAGCUCCACGUCAGGUAGGUCGCGUUCGAGACA [Omei Arginine B SS A v4],12.1,11.7,14.4,12.5,13.9
ACAUAGAGAUUAAUCGUGGGCAUACUCGAUACCAGUAUUUUAACCUACCCUUGGCAGCGACAUGAGGAUCACCCAUGUGAGAUGA [XTheo A #9],21.2,–,25.1,–,23
CUGCCAUGCAGAGAUACCAGUGAGCCCAGAACAUGAGGAUCACCCAUGUACGCCGCAGACCACCCUUGGCAGCUCUGCAUGGCAG [#$@$%],12.7,12.9,16.8,6.75,10.9
CGGGUUCGGGCGGCCGCCACUAUGAUUAGGUGUGGGUGUGUUGUGUUACAUGAGGAUCACCCAUGUAGGACCGGGUUUGGGCUUG [Sturgeon],33.4,52.6,84.5,28.3,57.4
AAGGGUGGGUCUCUAAUCCGUUUGACGGAUACCAGCGAGAGAUAUCGCCCUUGGCAGCCGACGACAUGAGGAUCACCCAUGUAAA [#05 Exclusion-TheophyllineA],16.8,18.7,22.5,34.8,15.8
UUUUACGGCGAUCUGGGUUUACCAGAUCGGCGAGGACCGGUACGGCCGCCACUCGUGUUUCUUUGACAUGAGGAUCACCCAUGUA [whbob_SS_trypto A_f1],28.9,–,42.5,39.2,–
CUACAUUUGUAGAAACCGGUCAACAAUAAUCGAGGACCGGUACGGCCGCCACUCGAUGUGUUAUACACAUGAGGAUCACCCAUGU [Tryptophan A 14],21.7,–,24.7,22.9,–
UUCAGCUAGUCGGCCGCCACUACAUGAGGAUCACCCAUGUUCCUAAAACACUGCUUCGGCAGUGGUAGGACCGGGACUAGCUGAG,41.1,31.7,48.5,42,256
UUUCAAGUAUCGGCCGCCACUCUAGUUGGUUGUUCAAUCCGAUUACAUGAGGAUCACCCAUGUCUGAGGACCGGGAUAAAGUAAU [theeternabot_sameState_MS2_Trp_B_25],20.4,–,32.5,31.2,–
UGUCGGCCGCCAGGAAAUGGUGGCCGACAUCGAGGACCGGUACGGCCGCCACUCGGUCGUACAUGAGGAUCACCCAUGUCGGUGA [SameState-Tryptophan_A Attempt #10 (HarryS)],72.9,496,508,942,1200
GAGUAAACUACGGCCGCCACUCAAGGAGAUCAAUAGAUCAUCGACAUGAGGAUCACCCAUGUAAAGAGGACCGGGUAGAUCCUUA [Same State Typrtophan B GF1],97.8,214,98.9,362,100
UGGUGUAGGGUAAAUAGGCUGAGUACAGAAGGAGCGCGAAUAAACGCAGGUAGGUCGCUGGACUCCACAUGAGGAUCACCCAUGU [Same State Arginine A GF 28],35.5,28.4,34.1,23.3,36.4
UGCGAUGAACCUGAUACCAGAUGUAUUUGCUCCUCGGACAACAUGAGGAUCACCCAUGUCAUCCCUUGGCAGCAGGAGCGAAAGC [theeternabot_exclusion_MS2_Theo_B_21],12.8,–,14.3,–,11.4
GUGACUUAAAGGCGCCAUUUGUGAUAGGAAGGAGCGGCGAAAUAGCCAGGUAGGUCGCCUAUACAUGAGGAUCACCCAUGUCACC [XARG-A 26],48.7,98.5,84.4,123,73.7
ACUCGGUGUUUGUUGCUCCGAGUGUAUGAUACCAGUCAGUUUUAUGGCCCUUGGCAGCAUAGGACAUGAGGAUCACCCAUGUGUU [#01 SameState-TheophyllineA],32.9,44.9,49,33.8,50.8
UAUCGAGGUACAUGAGGAUCACCCAUGUAUCGAGGACCGGUACGGCCGCCACUCGAUAAUGGCGGAUCGUUAGUCCUCUUCGAUA [Tryp A Ex 4b],–,–,14,12.7,–

Sequence,apparent KD of MS2 coat protein (input ligand: arginine 13.2 mM) [nM],apparent KD of MS2 coat protein (input ligand: none) [nM],apparent KD of MS2 coat protein [1] [nM],apparent KD of MS2 coat protein [2] [nM],apparent KD of MS2 coat protein [3] [nM]
AGAGGUGCAACAGAUACCAGUCUACCGUACCUCAGAGAACAUGAGGAUCACCCAUGUAUAGACCCUUGGCAGCUGAUGUUAUUCA [Theo B Ex t3],25.7,–,36.7,–,22.4
GAGCUGAUGUAGAAAUUUUAUUUAUGAGAUACCAGUACAGAAAUGUACCCUUGGCAGCUCAAUUUUACAUGAGGAUCACCCAUGU [Ex Theophylline A 13],16.8,–,12.5,–,11.5
AGUUUAGACACGGCCGCCACUCGUGACAGAUUUAGCAGUGGUCAACAUGAGGAUCACCCAUGUCUGAGGACCGGGUGUUGAGUUU [XTryp B #6],78.9,–,176,217,–
GGAGGGACCAGAAGGAGCGACAUGAGGAUCACCCAUGUCUCCCGUUAUGGGAGUUCUUUAGGUCAGGUAGGUCGCUGGUCCCUCC [#1 Exclusion - Arginine B Attempt #6 (Inspired by Omei)],55.7,158,87.3,138,86.1
GAGCUGAUGUAGGGCGGAUAUCCGUGAGAUACCAGUACAGAAAUGUACCCUUGGCAGCUCUUCCUUACAUGAGGAUCACCCAUGU [Ex Theophylline A 26],23.1,–,25.5,–,19.4
GGUCUCUGGAGCGAUACCAGCUUGAUCGUACUGGCCUGGUACAUGAGGAUCACCCAUGUAAGCCCUUGGCAGCGCUCCAGAGACC [#1 Exclusion - Theophylline B Attempt #8 (HarryS)],11.8,–,16.3,–,11.2
UAUCGGCACUGAAGGAGCGAGUUGACAAACAUGAGGAUCACCCAUGUUAUGGGUUGUUAAUCUCAGGUAGGUCGCAGUUGUCGCA [Same State Arginine B GF 19],221,334,403,576,500
UGUAUGUGAUCUGAUACCAGCUAAUAAAGCUUGAGGAUCACCCAAGUGGAGCGGAAACGCAGCCCUUGGCAGCAGAUCGCAUACU [Denovo 8 #StaticStem #AlternativeMS2],189,169,103,9.93,224
UGUAACAUGAGGAUCACCCAUGUAAGUGAUACCAGAUAAGUAGUAGUCCCUUGGCAGCAUAUUGGGAAAGUGUAUAGUCUAUACG [Same State - Theophylline A (Freestyle 5)],50,–,75.3,–,46.4
ACCAUGUAAUCAGAUACCAGACAUCUUUUAAAUCAUAUUACAUGAGGAUCACCCAUGUUGGUCCCUUGGCAGCUGAAAUAUUUUU [JR_Nu_SSTheophyB_Sub026],110,–,212,–,303
GUUGUAUACUCGGCCGCCACUGAGAGAGUCAUGUAAACAUGAGGAUCACCCAUGUAAUAUAUAUACAGGACCGGGAGUAUGGUAA [4.F],12.1,–,16.2,15.4,–
CGCACAUGAGGAUCACCCAUGUGAGGGCAUCGAGGACCGGUACGGCCGCCACUCGCAGGACAUGAGGAUCACCCAUGUGCCGCCG [SSTA DOUBLE!!! :-D #5],22.1,34.3,52.9,47.2,24.4
AAUAAUAAGGCGGCCGCCACUAAACAUGAGGAUCACCCAUGUCUCGAGGGCUUGCGUUUGGGAAGUAGGACCGGGCCAAUAAUAA [Exclusion - Tryptophan B (Freestyle 6)],12.6,17.9,18.8,20.4,16.4
AGCCCGUGAGCGGCCGCCACUGGAGGCUUUGCGCGACAUGAGGAUCACCCAUGUGUGCCCGGCGUUAGGACCGGGCUCACGUGGU [#1 Same State - Tryptophan B Attempt #20 (HarryS)],43.8,182,302,288,110
ACAUGAGGAUCACCCAUGUAUUACCGGGAAGGAGCGCGUAAGGACGCAGGUAGGUCGCUCGGCGUCGUGCUGGAAAGCACGACGA [#1 Same State - Arginine A Attempt #23 (HarryS)],12.9,14.1,20.7,17.9,15.1
AUACAUGAGGAUCACCCAUGUCCUCGUGAUCGAGGACCGGUACGGCCGCCACUCGGUCCUCGCGAGGAGGAGUCAAAGACUCCUA [Omei Trp A SS A v6],97.2,–,230,240,–
GGGCCUGUAGGCAGGCCCACAGCGGGUGAUACCAGCAAUAAAACUUGCCCUUGGCAGCACACAGCUACAUGAGGAUCACCCAUGU [Ismaorxe],44.9,–,99.3,–,69.7
AUAACUGUAAUAAACCGCAGGCUAGUGGAAGGAGCGCGGAAUAACGCAGGUAGGUCGCCACAAACUUGAGGAUCACCCAGGUGGC [SSAA NP+V+V2 #7 Diff Apt],38.1,49,78.8,57.7,48.6
